Measured values reported in US6942981.
Values belong to the binder of their own block, whether it stands above or below them. Ends that are not written are not given here. * marks the point of attachment. Biotin = O=C1N[C@H]2[C@H](CS[C@H]2CCCCC(=O)*)N1

Experiments:
[1] = molecular target: T1, GST-TIAM1 PDZ domain fusion protein (Homo sapiens (Human), UniProt Q13009 845-932); assay: A/G assays
T1 construct: also called T-lymphoma invasion and metastasis inducing protein 1; not shown: glutathione S-transferase (GST) encoded by pGEX-3X
T1 sequence (Q13009 other isoform, or with tags, fused parts or gaps): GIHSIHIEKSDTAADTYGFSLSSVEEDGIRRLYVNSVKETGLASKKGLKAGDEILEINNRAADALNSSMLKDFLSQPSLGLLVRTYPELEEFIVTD

[2] = molecular target: T2, GST-CBP (Cytohesin binding protein HE) PDZ domain fusion protein (Homo sapiens (Human), UniProt O60759 74-165); assay: A/G assays
T2 construct: not shown: glutathione S-transferase (GST) encoded by pGEX-3X
T2 sequence: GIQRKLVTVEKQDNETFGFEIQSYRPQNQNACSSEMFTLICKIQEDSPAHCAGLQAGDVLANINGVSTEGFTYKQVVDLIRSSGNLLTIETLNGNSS

[3] = molecular target: T3, GST-MINT3 PDZ domain fusion protein (human); assay: A/G assays
T3 construct: also called human MINT3; not shown: glutathione S-transferase (GST) encoded by pGEX-3X
T3 chain: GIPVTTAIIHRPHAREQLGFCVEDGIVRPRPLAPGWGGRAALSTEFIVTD

[4] = molecular target: T4, GST-SYN1a (alpha1-syntrophin) PDZ domain fusion protein (Homo sapiens (Human), UniProt Q13424 84-179); assay: A/G assays
T4 construct: also called SYN 1 α; not shown: glutathione S-transferase (GST) encoded by pGEX-3X
T4 sequence: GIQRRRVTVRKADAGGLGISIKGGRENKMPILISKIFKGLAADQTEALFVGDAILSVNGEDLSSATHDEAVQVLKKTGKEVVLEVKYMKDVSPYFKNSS

[5] = molecular target: T5, GST-TAX43 PDZ domain fusion protein (human, UniProt Q13884 109-180); assay: A/G assays
T5 construct: not shown: glutathione S-transferase (GST) encoded by pGEX-3X
T5 sequence: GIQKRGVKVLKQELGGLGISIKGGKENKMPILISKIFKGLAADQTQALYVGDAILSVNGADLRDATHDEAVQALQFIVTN

[6] = molecular target: T6, GST-CASK PDZ domain fusion protein (mouse, UniProt O14936 485-575 (human entry)); assay: A/G assays
T6 sequence: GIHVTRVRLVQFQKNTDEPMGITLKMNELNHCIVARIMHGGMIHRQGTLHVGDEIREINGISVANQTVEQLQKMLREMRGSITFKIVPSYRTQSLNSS

[7] = molecular target: T7, GST-NeDLG PDZ domains 1-2 fusion protein (Mus musculus (Mouse), UniProt P70175 147-332); assay: A/G assays
T7 construct: also called NeDLG1; not shown: glutathione S-transferase (GST) encoded by pGEX-3X
T7 chain: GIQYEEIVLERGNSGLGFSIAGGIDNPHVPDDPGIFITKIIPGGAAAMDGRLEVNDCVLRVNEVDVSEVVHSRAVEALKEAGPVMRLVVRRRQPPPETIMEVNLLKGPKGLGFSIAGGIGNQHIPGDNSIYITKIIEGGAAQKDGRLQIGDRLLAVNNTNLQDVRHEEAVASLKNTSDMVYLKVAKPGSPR

[8] = molecular target: T8, GST-41.8 kD (hypothetical 41.8 kD protein) PDZ domain fusion protein (Mus musculus (Mouse), UniProt Q9EQZ7 682-763); assay: A/G assays
T8 construct: not shown: glutathione S-transferase (GST) encoded by pGEX-3X
T8 sequence: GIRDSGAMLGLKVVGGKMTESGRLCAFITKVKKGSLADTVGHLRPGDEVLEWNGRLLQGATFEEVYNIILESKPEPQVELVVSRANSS

[9] = molecular target: T9, GST-NOS1 PDZ domain fusion protein (human, UniProt P29475 11-101); assay: A/G assays
T9 construct: also called human neuronal nitric oxide synthase; not shown: glutathione S-transferase (GST) encoded by pGEX-3X
T9 sequence (P29475 other isoform, or with tags, fused parts or gaps): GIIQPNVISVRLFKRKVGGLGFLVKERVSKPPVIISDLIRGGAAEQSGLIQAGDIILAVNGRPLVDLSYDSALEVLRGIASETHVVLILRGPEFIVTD

[10] = molecular target: T7, GST-NeDLG PDZ domains 1-2 fusion protein; assay: G assay
[11] = molecular target: T10, GST-PSD95 PDZ domains 1-3 fusion protein (human, UniProt P31016 58-395 (rat entry)); assay: A assay
T10 construct: not shown: glutathione S-transferase (GST) encoded by pGEX-3X
T10 sequence (P31016 other isoform, or with tags, fused parts or gaps): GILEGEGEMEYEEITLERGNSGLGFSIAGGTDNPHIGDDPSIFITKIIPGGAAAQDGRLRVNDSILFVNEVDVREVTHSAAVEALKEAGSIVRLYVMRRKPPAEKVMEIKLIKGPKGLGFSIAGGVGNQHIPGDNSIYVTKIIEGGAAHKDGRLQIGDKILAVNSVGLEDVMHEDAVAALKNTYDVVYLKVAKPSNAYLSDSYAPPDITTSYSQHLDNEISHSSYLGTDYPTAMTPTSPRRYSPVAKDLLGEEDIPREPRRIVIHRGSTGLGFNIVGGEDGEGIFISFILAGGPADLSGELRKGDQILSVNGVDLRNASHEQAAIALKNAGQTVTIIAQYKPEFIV

- binding result [1]: no binding
- binding result [2]: no binding
- binding result [3]: no binding
- binding result [4]: no binding
- binding result [5]: no binding
- binding result [6]: no binding
- binding result [7]: no binding
- binding result [8]: no binding
- binding result [9]: no binding
B1: CD148 peptide AA55L (ending KTIA) (peptide)
peptide: Biotin-TIYENLAPVTTFGKTIA

- binding result [1]: no binding
- binding result [2]: no binding
- binding result [3]: no binding
- binding result [4]: no binding
- binding result [5]: no binding
- binding result [6]: no binding
- binding result [8]: no binding
- binding result [9]: no binding
- binding result [10]: binds
- binding result [11]: binds
B2: CD34 C-terminal peptide AA7L (peptide)
peptide: Biotin-QATSRNGHSARQHVVADTEL
